Source: patent publication US20230365714A1

Assays:
[1] = molecular target: ROR112 shuffle variant (Ig-like domain and CRD of ROR1, kringle domain of ROR2) (human (ROR1/ROR2 chimera)) (UniProt Q01973); experiment: cell imaging (CellInsight) on CHO cells expressing the shuffle construct
[2] = molecular target: ROR122 shuffle variant (Ig-like domain of ROR1, CRD and kringle domain of ROR2) (human (ROR1/ROR2 chimera)) (UniProt Q01973); experiment: as above
Chain of ROR122 shuffle variant (Ig-like domain of ROR1, CRD and kringle domain of ROR2) (human (ROR1/ROR2 chimera)) (Q01973 other isoform, or with tags, fused parts or gaps mutant limits assumed): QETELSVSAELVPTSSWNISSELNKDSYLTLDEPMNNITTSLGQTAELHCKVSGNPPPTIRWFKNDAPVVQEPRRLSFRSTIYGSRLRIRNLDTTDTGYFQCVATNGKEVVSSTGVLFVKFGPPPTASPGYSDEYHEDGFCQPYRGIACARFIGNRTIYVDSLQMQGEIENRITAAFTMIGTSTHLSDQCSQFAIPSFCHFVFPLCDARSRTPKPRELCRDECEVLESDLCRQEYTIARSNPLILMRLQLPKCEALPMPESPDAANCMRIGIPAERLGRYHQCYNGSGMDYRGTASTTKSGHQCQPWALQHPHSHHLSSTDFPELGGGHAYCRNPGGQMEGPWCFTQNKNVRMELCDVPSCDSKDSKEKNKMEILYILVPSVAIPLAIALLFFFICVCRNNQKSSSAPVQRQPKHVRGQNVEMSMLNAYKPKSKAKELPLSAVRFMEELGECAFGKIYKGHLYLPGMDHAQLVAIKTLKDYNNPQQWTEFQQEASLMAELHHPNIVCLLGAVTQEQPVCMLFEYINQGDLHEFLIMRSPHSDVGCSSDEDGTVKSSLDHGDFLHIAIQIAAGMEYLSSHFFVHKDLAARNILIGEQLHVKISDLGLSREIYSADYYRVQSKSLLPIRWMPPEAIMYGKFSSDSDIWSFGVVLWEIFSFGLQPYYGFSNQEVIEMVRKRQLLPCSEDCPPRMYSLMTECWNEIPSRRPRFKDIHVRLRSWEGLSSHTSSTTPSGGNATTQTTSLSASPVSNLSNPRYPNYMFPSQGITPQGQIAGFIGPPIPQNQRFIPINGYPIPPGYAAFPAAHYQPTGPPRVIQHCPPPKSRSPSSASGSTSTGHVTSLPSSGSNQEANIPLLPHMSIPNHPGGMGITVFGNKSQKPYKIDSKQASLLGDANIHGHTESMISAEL

Chain of ROR112 shuffle variant (Ig-like domain and CRD of ROR1, kringle domain of ROR2) (human (ROR1/ROR2 chimera)) (Q01973 other isoform, or with tags, fused parts or gaps mutant limits assumed): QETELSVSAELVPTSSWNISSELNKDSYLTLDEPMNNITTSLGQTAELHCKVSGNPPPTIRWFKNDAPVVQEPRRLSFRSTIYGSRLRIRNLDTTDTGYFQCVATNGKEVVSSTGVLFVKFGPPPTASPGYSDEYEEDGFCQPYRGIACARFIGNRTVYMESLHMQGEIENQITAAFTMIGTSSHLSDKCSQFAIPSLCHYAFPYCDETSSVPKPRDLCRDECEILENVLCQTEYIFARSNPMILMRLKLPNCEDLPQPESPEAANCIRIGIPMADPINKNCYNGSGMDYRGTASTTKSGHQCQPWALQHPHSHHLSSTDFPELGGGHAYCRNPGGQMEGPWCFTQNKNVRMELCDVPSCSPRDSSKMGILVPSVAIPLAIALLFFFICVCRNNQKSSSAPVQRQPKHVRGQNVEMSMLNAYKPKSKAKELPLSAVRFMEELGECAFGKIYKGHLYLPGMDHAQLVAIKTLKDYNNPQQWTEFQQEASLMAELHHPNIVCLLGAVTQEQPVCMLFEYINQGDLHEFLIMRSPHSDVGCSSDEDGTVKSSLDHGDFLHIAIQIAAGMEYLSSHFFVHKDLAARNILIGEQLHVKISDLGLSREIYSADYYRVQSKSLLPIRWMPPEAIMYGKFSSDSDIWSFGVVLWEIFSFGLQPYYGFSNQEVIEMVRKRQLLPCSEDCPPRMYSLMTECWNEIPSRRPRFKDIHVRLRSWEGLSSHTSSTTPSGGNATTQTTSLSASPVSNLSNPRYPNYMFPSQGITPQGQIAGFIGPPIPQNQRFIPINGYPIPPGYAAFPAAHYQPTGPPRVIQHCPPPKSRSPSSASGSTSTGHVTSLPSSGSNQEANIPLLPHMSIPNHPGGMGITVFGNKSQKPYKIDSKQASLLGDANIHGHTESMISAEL

B1: chIgG1-ROR2-A (antibody, V domains shown)
VH: QSVEESGGRLVTPGTPLTLTCTVSGFSLSSYSMSWVRQAPGKGLEWIGVIYVNSKTWYANWAKGRFTISKTSTTVDLKITSPTTEDTATYFCARGDAGYTTNSWLWGPGTLVTVSS
VL: AFELTQTPASVSEPVGGTVTIKCQASESIDNYCSWYQQKPGQPPKLLIYQAFKLASGVPSRFRGSGSGTQFTLTISDLESDDAATYYCQSYSGISTTAFGGGTEVVVK
- RFU (total spot intensity) [1]: > 12000 RFU
- RFU (total spot intensity) [2]: > 12000 RFU
